Data on four molecules can be found in article PMC7276988, “Cryo-EM Structure of the Fork Protection Complex Bound to CMG at a Replication Fork” (Molecular Cell, 2020).

Experiment [1] concerns the target replisome assembled in vitro on origin DNA (CMG-containing) (S. cerevisiae) (UniProt P29469).
For experiment [2], the target named is T1, Cdc45 (S. cerevisiae, UniProt Q08032 1-650).
T1 construct: Cdc45, S. cerevisiae, subunit of CMG; source: S. cerevisiae, overexpressed, purified as part of CMG; in XL-MS part of the co-expressed, co-purified complex (yJY74)
T1 sequence: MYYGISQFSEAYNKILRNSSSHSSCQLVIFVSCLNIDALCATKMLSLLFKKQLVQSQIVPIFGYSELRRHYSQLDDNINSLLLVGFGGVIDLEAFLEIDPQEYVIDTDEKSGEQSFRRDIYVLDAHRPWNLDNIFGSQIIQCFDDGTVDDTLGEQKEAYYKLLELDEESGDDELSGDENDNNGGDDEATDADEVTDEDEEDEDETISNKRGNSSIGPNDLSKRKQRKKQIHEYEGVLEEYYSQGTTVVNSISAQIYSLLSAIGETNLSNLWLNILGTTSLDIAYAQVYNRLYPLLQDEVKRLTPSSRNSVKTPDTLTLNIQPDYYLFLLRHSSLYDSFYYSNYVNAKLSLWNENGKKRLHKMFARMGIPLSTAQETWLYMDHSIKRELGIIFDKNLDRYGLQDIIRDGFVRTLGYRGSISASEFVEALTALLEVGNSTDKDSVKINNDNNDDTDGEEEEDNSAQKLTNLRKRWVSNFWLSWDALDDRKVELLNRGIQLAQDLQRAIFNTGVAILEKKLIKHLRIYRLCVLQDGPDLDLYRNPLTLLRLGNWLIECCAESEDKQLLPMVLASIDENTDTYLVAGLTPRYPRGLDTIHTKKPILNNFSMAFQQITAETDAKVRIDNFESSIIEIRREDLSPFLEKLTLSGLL
The experiment in a line: cryo-EM structure; reconstituted from purified CMG, fork DNA, Csm3/Tof1, Ctf4, Mrc1 with AMP-PNP; glycerol gradient fixation (glutaraldehyde and BS3). The conditions noted are these: both partners purified.

The target of experiment [3] is T2, Cdc45-MCM-GINS (CMG) helicase (S. cerevisiae, UniProt P29469 1-868; P24279 1-971; P30665 1-933; P29496 1-775; P53091 1-1017; P38132 …).
T2 construct: Mcm2, S. cerevisiae, subunit of MCM in CMG; Mcm3, S. cerevisiae, subunit of MCM in CMG; Mcm4, S. cerevisiae, subunit of MCM in CMG; Mcm5, S. cerevisiae, subunit of MCM in CMG; Mcm6, S. cerevisiae, subunit of MCM in CMG; Mcm7, S. cerevisiae, subunit of MCM in CMG; Cdc45, S. cerevisiae, subunit of CMG; Psf1, S. cerevisiae, subunit of GINS in CMG; Psf2, S. cerevisiae, subunit of GINS in CMG; Psf3, …
The experiment is described as follows: co-sedimentation; 10-30% glycerol gradient without cross-linker; 0.5 μM CMG with 1.5 molar excess of fork DNA, Csm3/Tof1 (or mutant), Ctf4 and Mrc1; 500 μM AMP-PNP, 3 mM Mg(OAc)2, 150 mM NaOAc, pH 7.5; 200,000g, 4°C, 2 h; silver-stained SDS-PAGE of fractions. To be noted: both partners purified.

Chain of replisome assembled in vitro on origin DNA (CMG-containing) (S. cerevisiae) (P29469 whole entry, looked up): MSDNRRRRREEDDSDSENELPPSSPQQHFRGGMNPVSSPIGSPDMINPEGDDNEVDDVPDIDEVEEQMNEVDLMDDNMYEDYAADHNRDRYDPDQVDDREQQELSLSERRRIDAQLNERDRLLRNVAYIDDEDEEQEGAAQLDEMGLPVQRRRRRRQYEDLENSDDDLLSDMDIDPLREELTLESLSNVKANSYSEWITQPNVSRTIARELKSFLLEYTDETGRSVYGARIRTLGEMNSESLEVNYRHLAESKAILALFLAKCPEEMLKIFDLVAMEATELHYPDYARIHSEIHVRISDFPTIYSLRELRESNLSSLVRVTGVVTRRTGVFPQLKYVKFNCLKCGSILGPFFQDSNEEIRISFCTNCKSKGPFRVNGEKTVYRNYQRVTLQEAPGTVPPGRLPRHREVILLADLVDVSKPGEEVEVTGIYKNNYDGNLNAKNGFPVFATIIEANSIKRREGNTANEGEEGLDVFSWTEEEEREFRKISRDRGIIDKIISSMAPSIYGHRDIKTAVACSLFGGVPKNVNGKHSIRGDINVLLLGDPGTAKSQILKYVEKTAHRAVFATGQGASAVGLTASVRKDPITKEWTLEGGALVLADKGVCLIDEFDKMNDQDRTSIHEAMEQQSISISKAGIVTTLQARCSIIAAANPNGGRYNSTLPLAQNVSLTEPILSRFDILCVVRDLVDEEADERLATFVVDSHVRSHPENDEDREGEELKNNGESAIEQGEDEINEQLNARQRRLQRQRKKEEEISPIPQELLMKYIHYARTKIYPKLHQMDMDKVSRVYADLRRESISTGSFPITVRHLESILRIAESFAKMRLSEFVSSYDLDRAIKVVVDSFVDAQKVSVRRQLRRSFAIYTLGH

“Csm3/Tof1 heterodimer (from UniProt Q04659 1-317; P53840 1-1238) (complex)” gave a concentration of Csm3/Tof1 that saturates origin-dependent replication (Figure S10H) in experiment [1] of 10 nM.

B1: Psf2 (natural protein, S. cerevisiae)
chain: MSLPAHLQQTFSPEEIQFIVENEPIKIFPRITTRQKIRGDDRGTGNHTRWQLITTDDKALNNMVAMRSTEVVLWIALLLKQQSKCSIVAPQWLTTKELDRKIQYEKTHPDRFSELPWNWLVLARILFNKAKDDFHDPIHELRGKIQDLREIRQIKVLKGLKYLNESHLQLDNLSLLEINELRPFITEIMDKLREIHTASLTAGTENDEEEFNI
notes: also called GINS subunit Psf2; source: S. cerevisiae, overexpressed, purified as part of CMG
In the case of B1, the binding result in experiment [2] is given as “binds”.

B2: Csm3^(K47A, R48A, R49A, Q51A, K53A)/Tof1^(K400A, R401A, K404A) (complex, S. cerevisiae)
chain 1: MDQDFDSLLLGFNDSDSVQKDPTVPNGLDGSVVDPTIADPTAITARAAAPAVALTAEKLLSDKGLPYVLKNAHKRIRISSKKNSYDNLSNIIQFYQLWAHELFPKAKFKDFMKICQTVGKTDPVLREYRVSLFRDEMGMSFDVGTRETGQDLERQSPMVEEHVTSAEERPIVADSFAQDKRNVNNVDYDNDEDDDIYHLSYRNRRGRVLDERGNNETVLNNVVPPKEDLDALLKTFRVQGPVGLEENEKKLLLGWLDAHRKMEKGSMTEEDVQLIQSLEEWEMNDIEGQHTHYDLLPGGDEFGVDQDELDAMKEMGF
chain 2: MSADLQQGTTNAADFSLTVLRARIALLATAIGGPDYTSQIDPPPYKLGDDCLACLKDLKRWFKLVDDQQKRWDVAMAVAEYRILTDDLLPILIDWENKCSLAAKLAKNNPDHEEFRNKAYYDKIALNCLQLLVLMTWPLIVTEQSSSNQITLYGELKKHQLVYKKTILSMESGKVLRAAIRLALDVIKIDRLSRTPRDNMVLKLVLNFFRNVIAIEPGEFTINTKKSMPKKGITSIDTLPPNVSMDDISLNTVISSFHKNKVFGFLLTLTSSLSKEFDQDFINIPLLEIMFYFTKDVNQELLFPRQFETGTHSKVVNKNESSSANNIVTSAGFELSKLLQKEHQMRKNVIKHTSARHSRFGGLLSIQTPDKTRLTVSGSQALVDEKIALQKLDDSKKWNAAIIAKHQSVAAEGLPNSLLNSQTGKAIFFTESNGKHFKEFINNFIDSGFNILLHSVTNYFTTEQDRMVTLEQVEYLLFFAWFVKYQLLRSKIDNSADIKQVSEALKEVTFILVSSLLRSAYDLKNWTVTHAGMIAFNELLNLVSRTKAAQEEDSTDIEFIVSRLFSDERIQLLSNLPKIGSKYSLQFMKSCIELTHSVLKVLEQYSDDKTLVIEGKSRRQKKFNISEGDITKLIEEENVDRDEALDILTSSLRSIEVNFQKVQANYMTEPVIETYINFLERFRELEDDSIKKVFSFFHRVFVQAKEQALLFRFDLIILLREMLSPDGLDRMSRSRKYVSQFSDYFLARLKKRLKKSPAWFVGLLFPPLHNSEVGFYQRYGEYNVLNNESMYAAPASQFKPIPDEEALPPSILLDMKYGVLVSTLLDDGKTELLDQLLKHITHTLDIFKSWLTVNVNAGKETVNPPNEYFTLTGVLNNDPIFKDKDYRALLLLIGYSIPRKINEPCFLPGTVEVSDLTVSCELVKKYLSTPFETPNGLPSSSYLLRVRSEKDSFSHNEQDGWEGDDDYDYNDPYIVPDDQILSKSDAAYFKDLDNNASDKLKGTKFSKGIARSKKKDKRKRRKGEAKTNLPMFGDQDDERPQTVRERHGVFSKEFISDSEDDEDLMNPIFFENETYMRWLLDKNNGQLTEDRYIQFAKFAAERMNNGGVVTGDYTSLFGGSIPSIESIRATESSSFAPDKSLISLASHVASEMSIFDVNNNNNNQLSDDDVNSESRNSLGSSQPSNSQNMFQSEVYSRKESTKRSLEASAADESDEDEEAIRLFGKKSRVVLSQGDSDD
notes: also called Csm3-5A/Tof1-3A; source: S. cerevisiae, overexpressed, purified as a heterodimer
B2: the binding result in experiment [3] was “binds”.

B3: Mrc1 (natural protein, S. cerevisiae, UniProt P25588 1-1096, looked up)
chain: MDDALHALSSLTAKKRTTTYKKVAVPILDENDNTNGNGPNDIDNPPELTGNGFLFANATLNRVKNRLEGKKAPEQNHNNGKDRSENSLPTQLISNLYDGGEELEKSEVKDNSYSEKNVSSSFTQTQRIPVSIQQDKVFNVPIHSVNDGKPTQLIKEDGLVNETSQALKTPLTTGRPGATQRIDSSGATSQTQPIKSIEPQSQIITTSSNHSNALSPKIPIIPTELIGTSPLFQSIQNRGPDTQMDVPPQTAHDEDKTQAIGIPQATHQEQKTQIDTVAQTLQDEVPHTLKIREIQSELASEDSKREKARNVEYKKPQKPIPTKKFFSKESFLADFDDSSSNEDDDIKLENAHPKPVQNDDELHENKSVELNLTDETRINEKRVPLLSSYANNLKREIDSSKCITLDLDSDSDEYGDDDMDSIKLSKDESVLPISQLSKATILNLKARLSKQNQKLSQRPNKSKDPKVDHNVLLNTLRKASRKQILDHQKEVIETKGLKLEDMAKEKEIVENLLEQEILRNKRIRQKEKRREKLEENDFQLNAHDSGSDSGSESSGFALSGNEIADYESSGSENDNRRESDSEKEDDEIILKQKKSHHVKHIINESDSDTEVEAKPKEKADESLPKRIAINLGHYGDNIGEDTDKFQETNVLDTQNIEEVMAERNTIENEVKDDVYVNEEADEAIRRQLIDKEKLQLKQKEKEHEAKIKELKKRGVTNFFEMEAEESEDEWHGIGGADGEGSDDYDSDLEKMIDDYSKNNFNPHEIREMLAAENKEMDIKMINKILYDIKNGGFRNKRAKNSLELELSDDDEDDVLQQYRLKRRELMRKRRLEIGDDAKLVKNPKSSAFFESMVEDIIEYKNPFGAEEEYNLDITSTATDLDTQDNSINVGDNTGNNEQKPVDQKNKKVIISEDFVQKSLSFLKSNNYEDFETDKELSRIQHGNDEAIEDLYTLKQNSSIKSFTNSQTDSTTSKTVNTIIDLEKRPEDEDEVENGDTSLVGVFKHPSIIKSFASRTDINDKFKEGNKTVKILKSYKTVGSSKASITYMGKTRKLIAPKRKTEGSHRYHHDHHNKKMKMKTKTKSNKLFESGQDSFDN
notes: Mrc1, S. cerevisiae; printed as a 125 kDa protein; The FLAG purification is told for the separately purified protein; source: S. cerevisiae, overexpressed at 20°C, purified (anti-FLAG M2, Superose 6)
Regarding B3, the “stoichiometry N” value in experiment [3] was roughly 1 Mrc1 per complex.

For orientation: stoichiometry N means a count of units in the complex or per binding partner.
